Holding throughout (assay): cell-based or functional assay
The target in experiment [1] is glucagon receptor (UniProt P47871 26-477, limits assumed).
Experiment [2] has as its target GLP-1 receptor (UniProt P43220 24-463, limits assumed).
Experiment [3] deals with T1, GIP receptor (UniProt P48546 22-466).
T1 sequence (looked up): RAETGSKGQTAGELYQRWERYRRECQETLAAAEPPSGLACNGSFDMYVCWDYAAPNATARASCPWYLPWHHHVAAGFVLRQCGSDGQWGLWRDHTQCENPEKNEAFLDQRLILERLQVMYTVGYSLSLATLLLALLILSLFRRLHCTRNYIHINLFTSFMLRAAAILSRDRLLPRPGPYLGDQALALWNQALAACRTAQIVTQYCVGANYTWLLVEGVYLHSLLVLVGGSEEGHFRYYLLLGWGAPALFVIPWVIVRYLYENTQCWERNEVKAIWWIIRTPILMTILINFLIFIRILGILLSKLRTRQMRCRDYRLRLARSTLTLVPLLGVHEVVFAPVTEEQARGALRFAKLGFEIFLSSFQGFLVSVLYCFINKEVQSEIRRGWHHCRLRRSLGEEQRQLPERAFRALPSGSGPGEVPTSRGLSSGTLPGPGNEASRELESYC

Numbered stars: 1 amine (or outer) side, 2 acyl side, 3 side chain; on linkers, the order of the positions; unused ones are H or OH. Square brackets hold non-standard residues; d marks the D form. Side chains are listed from the residue outwards. Ends that are not written are not given here. * marks the point of attachment. γGlu = O=C(O)[C@H](CCC(=O)[*:2])N[*:1]; Desaminohistidyl = O=C(CCc1c[nH]cn1)*; Palmitoyl = CCCCCCCCCCCCCCCC(=O)*; Aib = CC(C)(N)C(=O)O

Sequence of glucagon receptor (P47871 26-477 limits assumed): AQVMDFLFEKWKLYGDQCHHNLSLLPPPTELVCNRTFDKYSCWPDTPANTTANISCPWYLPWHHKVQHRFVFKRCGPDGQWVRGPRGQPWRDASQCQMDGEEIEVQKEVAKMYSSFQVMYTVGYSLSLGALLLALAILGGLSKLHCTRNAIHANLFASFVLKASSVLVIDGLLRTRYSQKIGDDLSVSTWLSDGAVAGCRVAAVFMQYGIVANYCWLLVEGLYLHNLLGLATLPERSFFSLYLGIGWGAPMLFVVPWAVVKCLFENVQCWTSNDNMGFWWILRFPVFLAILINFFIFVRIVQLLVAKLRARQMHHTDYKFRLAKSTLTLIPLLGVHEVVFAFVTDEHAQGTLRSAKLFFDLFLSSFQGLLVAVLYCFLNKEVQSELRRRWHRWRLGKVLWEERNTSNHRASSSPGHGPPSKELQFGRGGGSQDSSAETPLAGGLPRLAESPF

B1: peptide of SEQ ID NO: 24 (peptide)
peptide: H[Aib]QGTFTSDK([γGlu-γGlu-Palmitoyl])SKYLD[Aib]RAAQDFVQWLKDGRG-NH2
modifications: N-terminus assumed
SMILES: CCCCCCCCCCCCCCCC(=O)N[C@@H](CCC(=O)N[C@@H](CCC(=O)NCCCC[C@H](NC(=O)[C@H](CC(=O)O)NC(=O)[C@H](CO)NC(=O)[C@@H](NC(=O)[C@H](Cc1ccccc1)NC(=O)[C@@H](NC(=O)CNC(=O)[C@H](CCC(N)=O)NC(=O)C(C)(C)NC(=O)[C@@H](N)Cc1c[nH]cn1)[C@@H](C)O)[C@@H](C)O)C(=O)N[C@@H](CO)C(=O)N[C@@H](CCCCN)C(=O)N[C@@H](Cc1ccc(O)cc1)C(=O)N[C@@H](CC(C)C)C(=O)N[C@@H](CC(=O)O)C(=O)NC(C)(C)C(=O)N[C@@H](CCCNC(=N)N)C(=O)N[C@@H](C)C(=O)N[C@@H](C)C(=O)N[C@@H](CCC(N)=O)C(=O)N[C@@H](CC(=O)O)C(=O)N[C@@H](Cc1ccccc1)C(=O)N[C@H](C(=O)N[C@@H](CCC(N)=O)C(=O)N[C@@H](Cc1c[nH]c2ccccc12)C(=O)N[C@@H](CC(C)C)C(=O)N[C@@H](CCCCN)C(=O)N[C@@H](CC(=O)O)C(=O)NCC(=O)N[C@@H](CCCNC(=N)N)C(=O)NCC(N)=O)C(C)C)C(=O)O)C(=O)O
Consider B1, for which the “EC50 (nM) at glucagon receptor” value in experiment [1] worked out at 0.021 nM. Also, the “EC50 (nM) at GLP-1 receptor” value in experiment [2] amounted to 0.004 nM. Further, in experiment [3], the “EC50 (nM) at GIP receptor” value was found to be 1.46 nM.

B2: peptide of SEQ ID NO: 21 (peptide)
peptide: Ac-H[dS]QGTFTSDK([γGlu-Palmitoyl])SKYLDERAAQDFVQWLLDT-NH2
SMILES: CCCCCCCCCCCCCCCC(=O)N[C@@H](CCC(=O)NCCCC[C@H](NC(=O)[C@H](CC(=O)O)NC(=O)[C@H](CO)NC(=O)[C@@H](NC(=O)[C@H](Cc1ccccc1)NC(=O)[C@@H](NC(=O)CNC(=O)[C@H](CCC(N)=O)NC(=O)[C@@H](CO)NC(=O)[C@H](Cc1c[nH]cn1)NC(C)=O)[C@@H](C)O)[C@@H](C)O)C(=O)N[C@@H](CO)C(=O)N[C@@H](CCCCN)C(=O)N[C@@H](Cc1ccc(O)cc1)C(=O)N[C@@H](CC(C)C)C(=O)N[C@@H](CC(=O)O)C(=O)N[C@@H](CCC(=O)O)C(=O)N[C@@H](CCCNC(=N)N)C(=O)N[C@@H](C)C(=O)N[C@@H](C)C(=O)N[C@@H](CCC(N)=O)C(=O)N[C@@H](CC(=O)O)C(=O)N[C@@H](Cc1ccccc1)C(=O)N[C@H](C(=O)N[C@@H](CCC(N)=O)C(=O)N[C@@H](Cc1c[nH]c2ccccc12)C(=O)N[C@@H](CC(C)C)C(=O)N[C@@H](CC(C)C)C(=O)N[C@@H](CC(=O)O)C(=O)N[C@H](C(N)=O)[C@@H](C)O)C(C)C)C(=O)O
With B2, the “EC50 (nM) at glucagon receptor” value in experiment [1] turned out to be 0.005 nM. Also, the “EC50 (nM) at GLP-1 receptor” value in experiment [2] was determined as 0.009 nM. In experiment [3], the “EC50 (nM) at GIP receptor” value is 4.5 nM.

B3: peptide of SEQ ID NO: 23 (peptide)
peptide: H[Aib]QGTFTSDK([γGlu-γGlu-Palmitoyl])SKYLD[Aib]RAAQDFVQWLMKGRG-NH2
modifications: N-terminus assumed
SMILES: CCCCCCCCCCCCCCCC(=O)N[C@@H](CCC(=O)N[C@@H](CCC(=O)NCCCC[C@H](NC(=O)[C@H](CC(=O)O)NC(=O)[C@H](CO)NC(=O)[C@@H](NC(=O)[C@H](Cc1ccccc1)NC(=O)[C@@H](NC(=O)CNC(=O)[C@H](CCC(N)=O)NC(=O)C(C)(C)NC(=O)[C@@H](N)Cc1c[nH]cn1)[C@@H](C)O)[C@@H](C)O)C(=O)N[C@@H](CO)C(=O)N[C@@H](CCCCN)C(=O)N[C@@H](Cc1ccc(O)cc1)C(=O)N[C@@H](CC(C)C)C(=O)N[C@@H](CC(=O)O)C(=O)NC(C)(C)C(=O)N[C@@H](CCCNC(=N)N)C(=O)N[C@@H](C)C(=O)N[C@@H](C)C(=O)N[C@@H](CCC(N)=O)C(=O)N[C@@H](CC(=O)O)C(=O)N[C@@H](Cc1ccccc1)C(=O)N[C@H](C(=O)N[C@@H](CCC(N)=O)C(=O)N[C@@H](Cc1c[nH]c2ccccc12)C(=O)N[C@@H](CC(C)C)C(=O)N[C@@H](CCSC)C(=O)N[C@@H](CCCCN)C(=O)NCC(=O)N[C@@H](CCCNC(=N)N)C(=O)NCC(N)=O)C(C)C)C(=O)O)C(=O)O
As to B3, the “EC50 (nM) at glucagon receptor” value in experiment [1] came out at 0.023 nM. Further, the “EC50 (nM) at GLP-1 receptor” value in experiment [2] amounted to 0.004 nM. Also, in experiment [3], the “EC50 (nM) at GIP receptor” value worked out at 1.58 nM.

B4: peptide of SEQ ID NO: 26 (peptide)
peptide: H[Aib]QGTFTSDK([γGlu-γGlu-Palmitoyl])SKYLD[Aib]RAAQDFVQWLK[Aib]GRG-NH2
modifications: N-terminus assumed
SMILES: CCCCCCCCCCCCCCCC(=O)N[C@@H](CCC(=O)N[C@@H](CCC(=O)NCCCC[C@H](NC(=O)[C@H](CC(=O)O)NC(=O)[C@H](CO)NC(=O)[C@@H](NC(=O)[C@H](Cc1ccccc1)NC(=O)[C@@H](NC(=O)CNC(=O)[C@H](CCC(N)=O)NC(=O)C(C)(C)NC(=O)[C@@H](N)Cc1c[nH]cn1)[C@@H](C)O)[C@@H](C)O)C(=O)N[C@@H](CO)C(=O)N[C@@H](CCCCN)C(=O)N[C@@H](Cc1ccc(O)cc1)C(=O)N[C@@H](CC(C)C)C(=O)N[C@@H](CC(=O)O)C(=O)NC(C)(C)C(=O)N[C@@H](CCCNC(=N)N)C(=O)N[C@@H](C)C(=O)N[C@@H](C)C(=O)N[C@@H](CCC(N)=O)C(=O)N[C@@H](CC(=O)O)C(=O)N[C@@H](Cc1ccccc1)C(=O)N[C@H](C(=O)N[C@@H](CCC(N)=O)C(=O)N[C@@H](Cc1c[nH]c2ccccc12)C(=O)N[C@@H](CC(C)C)C(=O)N[C@@H](CCCCN)C(=O)NC(C)(C)C(=O)NCC(=O)N[C@@H](CCCNC(=N)N)C(=O)NCC(N)=O)C(C)C)C(=O)O)C(=O)O
Turning to B4, the “EC50 (nM) at glucagon receptor” value in experiment [1] worked out at 0.106 nM. In addition, in experiment [2], the “EC50 (nM) at GLP-1 receptor” value stood at 0.004 nM. Moreover, in experiment [3], the “EC50 (nM) at GIP receptor” value was found to be 3.29 nM.

B5: peptide of SEQ ID NO: 25 (peptide)
peptide: H[Aib]QGTFTSDK([γGlu-γGlu-Palmitoyl])SKYLD[Aib]RAAQDFVQWLKDGRP-NH2
modifications: N-terminus assumed
SMILES: CCCCCCCCCCCCCCCC(=O)N[C@@H](CCC(=O)N[C@@H](CCC(=O)NCCCC[C@H](NC(=O)[C@H](CC(=O)O)NC(=O)[C@H](CO)NC(=O)[C@@H](NC(=O)[C@H](Cc1ccccc1)NC(=O)[C@@H](NC(=O)CNC(=O)[C@H](CCC(N)=O)NC(=O)C(C)(C)NC(=O)[C@@H](N)Cc1c[nH]cn1)[C@@H](C)O)[C@@H](C)O)C(=O)N[C@@H](CO)C(=O)N[C@@H](CCCCN)C(=O)N[C@@H](Cc1ccc(O)cc1)C(=O)N[C@@H](CC(C)C)C(=O)N[C@@H](CC(=O)O)C(=O)NC(C)(C)C(=O)N[C@@H](CCCNC(=N)N)C(=O)N[C@@H](C)C(=O)N[C@@H](C)C(=O)N[C@@H](CCC(N)=O)C(=O)N[C@@H](CC(=O)O)C(=O)N[C@@H](Cc1ccccc1)C(=O)N[C@H](C(=O)N[C@@H](CCC(N)=O)C(=O)N[C@@H](Cc1c[nH]c2ccccc12)C(=O)N[C@@H](CC(C)C)C(=O)N[C@@H](CCCCN)C(=O)N[C@@H](CC(=O)O)C(=O)NCC(=O)N[C@@H](CCCNC(=N)N)C(=O)N1CCC[C@H]1C(N)=O)C(C)C)C(=O)O)C(=O)O
For the molecule B5, the “EC50 (nM) at glucagon receptor” value in experiment [1] was found to be 0.035 nM. Besides, the “EC50 (nM) at GLP-1 receptor” value in experiment [2] amounted to 0.003 nM. Besides, in experiment [3], the “EC50 (nM) at GIP receptor” value was found to be 2.36 nM.

B6: peptide of SEQ ID NO: 22 (peptide)
peptide: H[Aib]QGTFTSDK([γGlu-γGlu-Palmitoyl])SKYLD[Aib]RAAQDFVQWLMDGRG-NH2
modifications: N-terminus assumed
SMILES: CCCCCCCCCCCCCCCC(=O)N[C@@H](CCC(=O)N[C@@H](CCC(=O)NCCCC[C@H](NC(=O)[C@H](CC(=O)O)NC(=O)[C@H](CO)NC(=O)[C@@H](NC(=O)[C@H](Cc1ccccc1)NC(=O)[C@@H](NC(=O)CNC(=O)[C@H](CCC(N)=O)NC(=O)C(C)(C)NC(=O)[C@@H](N)Cc1c[nH]cn1)[C@@H](C)O)[C@@H](C)O)C(=O)N[C@@H](CO)C(=O)N[C@@H](CCCCN)C(=O)N[C@@H](Cc1ccc(O)cc1)C(=O)N[C@@H](CC(C)C)C(=O)N[C@@H](CC(=O)O)C(=O)NC(C)(C)C(=O)N[C@@H](CCCNC(=N)N)C(=O)N[C@@H](C)C(=O)N[C@@H](C)C(=O)N[C@@H](CCC(N)=O)C(=O)N[C@@H](CC(=O)O)C(=O)N[C@@H](Cc1ccccc1)C(=O)N[C@H](C(=O)N[C@@H](CCC(N)=O)C(=O)N[C@@H](Cc1c[nH]c2ccccc12)C(=O)N[C@@H](CC(C)C)C(=O)N[C@@H](CCSC)C(=O)N[C@@H](CC(=O)O)C(=O)NCC(=O)N[C@@H](CCCNC(=N)N)C(=O)NCC(N)=O)C(C)C)C(=O)O)C(=O)O
On to B6, for which, in experiment [1], the “EC50 (nM) at glucagon receptor” value was found to be 0.005 nM. Also, the “EC50 (nM) at GLP-1 receptor” value in experiment [2] worked out at 0.002 nM. In addition, in experiment [3], the “EC50 (nM) at GIP receptor” value was 2.37 nM.

B7: peptide of SEQ ID NO: 20 (peptide)
peptide: [Desaminohistidyl][dS]QGTFTSDK([γGlu-Palmitoyl])SKYLDERAAQDFVQWLLDT-NH2
SMILES: CCCCCCCCCCCCCCCC(=O)N[C@@H](CCC(=O)NCCCC[C@H](NC(=O)[C@H](CC(=O)O)NC(=O)[C@H](CO)NC(=O)[C@@H](NC(=O)[C@H](Cc1ccccc1)NC(=O)[C@@H](NC(=O)CNC(=O)[C@H](CCC(N)=O)NC(=O)[C@@H](CO)NC(=O)CCc1c[nH]cn1)[C@@H](C)O)[C@@H](C)O)C(=O)N[C@@H](CO)C(=O)N[C@@H](CCCCN)C(=O)N[C@@H](Cc1ccc(O)cc1)C(=O)N[C@@H](CC(C)C)C(=O)N[C@@H](CC(=O)O)C(=O)N[C@@H](CCC(=O)O)C(=O)N[C@@H](CCCNC(=N)N)C(=O)N[C@@H](C)C(=O)N[C@@H](C)C(=O)N[C@@H](CCC(N)=O)C(=O)N[C@@H](CC(=O)O)C(=O)N[C@@H](Cc1ccccc1)C(=O)N[C@H](C(=O)N[C@@H](CCC(N)=O)C(=O)N[C@@H](Cc1c[nH]c2ccccc12)C(=O)N[C@@H](CC(C)C)C(=O)N[C@@H](CC(C)C)C(=O)N[C@@H](CC(=O)O)C(=O)N[C@H](C(N)=O)[C@@H](C)O)C(C)C)C(=O)O
Take B7: the “EC50 (nM) at glucagon receptor” value in experiment [1] is 0.006 nM. Besides, the “EC50 (nM) at GLP-1 receptor” value in experiment [2] stood at 0.004 nM. Moreover, the “EC50 (nM) at GIP receptor” value in experiment [3] turned out to be 1.38 nM.

These data come from patent US20140206607A1 (INDIANA UNIVERSITY RESEARCH AND TECHNOLOGY, published 2014).
